Assay results published in the supplement of paper PMC10126150.
± gives the standard deviation of the averaged measurements.

tested on: ATP; test: switch fluorescence ratio, 500 uM ATP over buffer (Cy3 cluster intensity, sum of 5 cycles each) (fold (ratio)); higher = stronger signal-on switching upon ATP binding; sequences stand for … in TCGTCGGCAGCGTCAGATGTGTATAAGAGACAGTTTTTTTTTTTTTTTTTTTTTTTTT…TC; conditions: aptamer strand: ATP DNA aptamer (quencher-CACCTGGGGGAGTATTGCGGAGGAAGG + anchor), 100 nM annealed; ATP concentration: 500 uM
How it was run: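 Five buffer/ATP imaging cycles were run on Cy3-labelled switching-strand clusters on a modified Illumina MiSeq flow-cell, with NaOH stripping and re-annealing between cycles. In each cycle, clusters annealed to 100 nM quencher-labelled ATP aptamer were imaged in selection buffer, then after 15 min with 500 uM ATP at 22 °C. Per cluster, the fluorescence ratio is summed target-cycle over summed buffer-cycle Cy3 intensity, averaged per switch-domain sequence. Only clusters within 100-1000 RFU were kept.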
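Also: ATP exposure 15 min at 22 °C before imaging.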

Row | Sequence | switch fluorescence ratio
1 | TTAAGAGGTG | 1.09 ± 0.034
2 | ATTCCTTTGT | 1.01 ± 0.026
3 | TGTTAGGC | 1.01 ± 0.05
4 | CCAATGAGTG | 1.01 ± 0.023
5 | CTGATATAAG | 1.03 ± 0.017
6 | TTGTGTGCAG | 0.959 ± 0.053
7 | TACCGGATGG | 1.03 ± 0.021
8 | CGAGTTGGAC | 1.0038 ± 0.00091
9 | GAAGGGGGGG | 0.999 ± 0.042
10 | TCGCCTGTTT | 1.003 ± 0.0036
11 | TTATTAAGAC | 1 ± 0.032
12 | AGGTTCGTAT | 1.01 ± 0.03
13 | CGGTGTTGGA | 0.978 ± 0.039
14 | TAAGGAGGAG | 1 ± 0.013
15 | TGTTTGCTTG | 0.993 ± 0.021
16 | ATGGGTTGGA | 1.008 ± 0.0088
17 | CATGTCGGCA | 1 ± 0.019
18 | TGATAATTAC | 1.19 ± 0.27
19 | AAGATTGTCG | 1.14 ± 0.039
20 | CCACAGCCGG | 1.23 ± 0.13
21 | GATTTCGGTC | 1.05 ± 0.056
22 | ATAAACTATA | 1.04 ± 0.06
23 | AGAATGGCTT | 1 ± 0.041
24 | GTATCAGGCC | 0.992 ± 0.01
25 | TTTTTTTAGT | 0.996 ± 0.022

Row | Sequence | switch fluorescence ratio
26 | TGGGGAGCAA | 1.73 ± 0.074
27 | GATCTCCGGC | 1.63 ± 0.063
28 | CTATGCGGTC | 2.39 ± 1.8
29 | AAACGATTTC | 1.01 ± 0.019
30 | AACCTTTCTT | 1.46 ± 0.041
31 | GGCGGGGCAC | 0.989 ± 0.038
32 | ATGGCTATTT | 0.9852 ± 0.0086
33 | CAGCGGGCGA | 1.01 ± 0.032
34 | CCGGGGGACG | 1.06 ± 0.14
35 | GGTCTTAGTG | 0.982 ± 0.017
36 | AGCTGACATT | 0.999 ± 0.034
37 | GTATGCCGGG | 0.939 ± 0.057
38 | ACTGAGGAT | 0.9994 ± 0.003
39 | TAGGTGGGTT | 0.982 ± 0.041
40 | ACGCCCGAAC | 1.452 ± 0.013
41 | TTTAATAGCA | 1.01 ± 0.025
42 | TTAGTAGAGT | 1 ± 0.013
43 | GATATGGGGT | 0.9828 ± 0.0085
44 | GAAAAGGGGA | 1.27 ± 0.48
45 | TGGATGGGCT | 1.03 ± 0.037
46 | TGCTATTGGT | 1.03 ± 0.035
47 | AATTGAGGCG | 1.02 ± 0.089
48 | TCGGGGTTCT | 1.01 ± 0.0064
49 | GATTTCATCT | 0.995 ± 0.032
50 | TCTCCGTCCT | 1.33 ± 0.025

Row | Sequence | switch fluorescence ratio
51 | TATATTGACC | 1.04 ± 0.03
52 | AATGTCGCTG | 1.003 ± 0.0018
53 | TCAGGGGCGT | 1.0041 ± 0.00072
54 | TTCTGCTTTC | 1.11 ± 0.03
55 | GATCGTATTC | 1.05 ± 0.088
56 | GGGCTTGGTA | 1 ± 0.014
57 | GGTGGGGTGA | 0.9856 ± 0.0078
58 | ACGGGGCCGC | 0.994 ± 0.045
59 | AACCGGATTC | 1 ± 0.02
60 | CAGTAGGCCA | 1.01 ± 0.032
61 | CGGGTGGTGG | 0.99 ± 0.017
62 | ATCATCTGAA | 0.987 ± 0.016
63 | CGTATTTTGG | 0.986 ± 0.032
64 | GGCCTAGGCT | 1.02 ± 0.013
65 | GTATGTATTT | 0.986 ± 0.021
66 | CGGGTTGGTT | 1.032 ± 0.0056
67 | GGCTGGGTTT | 1.02 ± 0.026
68 | ACTCTATACA | 1.11 ± 0.088
69 | CTGTGGTTTT | 0.98 ± 0.034
70 | ATACAAATTA | 1.01 ± 0.027
71 | CAGGGAAAAG | 0.991 ± 0.032
72 | AAGAGGTCG | 1.02 ± 0.046
73 | ATCCTGTAGT | 0.999 ± 0.044
74 | GATGAAAGGG | 1.22 ± 0.46
75 | CGCGGGGGTT | 1.03 ± 0.035

Row | Sequence | switch fluorescence ratio
76 | TTAATAATAT | 1 ± 0.021
77 | ATTTCGGTTG | 0.989 ± 0.026
78 | TAGAGAGCTT | 0.986 ± 0.036
79 | TGGATTTACT | 1.01 ± 0.031
80 | ACTCGGCGGT | 2.14 ± 1.7
81 | AAGAAGGGAA | 1.004 ± 0.0068
82 | TTAACGGGAA | 1 ± 0.024
83 | TAAAGCTGAT | 1.01 ± 0.012
84 | GCTGGAACCG | 1.08 ± 0.022
85 | CGATTAAAGT | 0.997 ± 0.031
86 | ACTGGTAACG | 1.02 ± 0.024
87 | GGCTTAGACG | 0.959 ± 0.063
88 | TCGTCAAGTT | 1.007 ± 0.01
89 | ATTAATTAGA | 0.975 ± 0.041
90 | GTAGGGACCG | 0.909 ± 0.025
91 | ATAAGCGGGG | 1.01 ± 0.04
92 | GTCTTTAGGG | 0.9755 ± 0.0055
93 | CAGAACCAGG | 1.24 ± 0.06
94 | CATTTATAAA | 0.992 ± 0.011
95 | GGCGGGGGTT | 1.03 ± 0.017
96 | ACTACAGGCT | 1.026 ± 0.0035
97 | CGTTGCTACA | 1.01 ± 0.019
98 | AGATGGAGGA | 0.99 ± 0.033
99 | CTGGGACTGA | 1.02 ± 0.03
100 | TTTAGCAAAC | 3.53 ± 0.95

Row | Sequence | switch fluorescence ratio
101 | GACGTAGACA | 1.042 ± 0.01
102 | CGGAGCAGTT | 2.46 ± 0.41
103 | ACTAGTAGGG | 1 ± 0.0095
104 | ATGGGGGGGG | 1.01 ± 0.039
105 | AAGTTGAATA | 0.985 ± 0.021
106 | TAGTTCGTAT | 0.986 ± 0.0099
107 | CGACGACTGG | 1.01 ± 0.017
108 | TTATTTTGTG | 0.987 ± 0.035
109 | AGTGAGGCGT | 0.984 ± 0.018
110 | GGTTTAGACT | 0.99 ± 0.036
111 | ACGTGGCACA | 1.053 ± 0.0084
112 | TACAAAGCAG | 1.11 ± 0.037
113 | TATTTTAGTT | 1.02 ± 0.023
114 | AATCGGCACG | 1.01 ± 0.02
115 | AAAATAGGCC | 1.02 ± 0.013
116 | TTTGAATAAG | 0.995 ± 0.023
117 | GGGGGGAGTA | 1.01 ± 0.056
118 | GAGGGATTGT | 1 ± 0.021
119 | GCTGGGAGAG | 0.989 ± 0.042
120 | TAAGGGGAAC | 1.01 ± 0.03
121 | AATAATTACA | 0.9987 ± 0.0094
122 | GTTCCTCGCT | 2.77 ± 0.33
123 | TTTCTGTGTT | 1.012 ± 0.0069
124 | GTCGATGGTG | 1 ± 0.016
125 | ATCGTTGCGT | 1.02 ± 0.031

Row | Sequence | switch fluorescence ratio
126 | GGGAACGTTA | 1.05 ± 0.035
127 | GCTTACCCCC | 2.09 ± 0.13
128 | ATTCAACAAT | 1 ± 0.016
129 | TGATACGGAG | 0.983 ± 0.06
130 | AGAGCGCGCC | 1.02 ± 0.05
131 | GACATGAGTT | 0.984 ± 0.026
132 | ATTTTGTATT | 0.99 ± 0.034
133 | ACAGTGAAAT | 1.02 ± 0.039
134 | TACGATTTAT | 1.018 ± 0.0096
135 | AGGCACCATC | 1.06 ± 0.045
136 | TATCAGGGGT | 1.08 ± 0.073
137 | GATGTAGACT | 0.9818 ± 0.0033
138 | TGCGTTCTGG | 1.048 ± 0.007
139 | AGTGGCATGT | 0.986 ± 0.012
140 | TGGGTCTAGA | 0.975 ± 0.023
141 | AGAAATATAT | 1.23 ± 0.35
142 | CATACGGGGG | 1.03 ± 0.025
143 | ATAGATCTGA | 1.03 ± 0.084
144 | GAACTAGCGC | 1 ± 0.019
145 | TTTCTCATTC | 1.08 ± 0.12
146 | CTTTTTAGAG | 0.994 ± 0.015
147 | GGTATAGAGC | 1.02 ± 0.05
148 | TGAGCCCCGG | 1.03 ± 0.028
149 | TTAGAGAGGA | 0.987 ± 0.026
150 | GTGTTTGTTG | 0.989 ± 0.029

Row | Sequence | switch fluorescence ratio
151 | GACGGTTTAG | 1.04 ± 0.058
152 | ATCGTCTCGC | 1.03 ± 0.05
153 | GCTGGCGGAT | 1.01 ± 0.041
154 | AGGAGGCTAG | 1.02 ± 0.045
155 | GGGGTTAGTG | 0.971 ± 0.034
156 | CATTGGGAGA | 0.984 ± 0.011
157 | GGGAGGAGGC | 0.889 ± 0.04
158 | TGGGTAAGGA | 1 ± 0.026
159 | TCTTATTCTG | 1.044 ± 0.0063
160 | GTATTATAGG | 1.006 ± 0.0042
161 | TTAACGGTTC | 0.983 ± 0.017
162 | GGTGGGTTGC | 0.9858 ± 0.0086
163 | AAGATGGGGC | 0.998 ± 0.038
164 | ATTATAAAAC | 1.03 ± 0.045
165 | TGCTGTGGGG | 1 ± 0.029
166 | GAGCGTCTGG | 1.02 ± 0.011
167 | TTTGCCACTT | 0.991 ± 0.011
168 | CAAGATCTGT | 0.9925 ± 0.0031
169 | GGTGTTGTTT | 0.963 ± 0.019
170 | TTTTACGGTA | 1.12 ± 0.022
171 | GGAGTCATGA | 0.982 ± 0.04
172 | ATTGCTGGGT | 0.985 ± 0.033
173 | TTAAGTAGTT | 1.02 ± 0.0099
174 | TTGGTAGGAG | 0.985 ± 0.042
175 | CTAGGGTGTG | 0.988 ± 0.034

Row | Sequence | switch fluorescence ratio
176 | TATCAAAGGC | 1.014 ± 0.0082
177 | ATGGTGTAGC | 0.986 ± 0.016
178 | CGTAATTTTA | 1.01 ± 0.027
179 | TCAAAATTAT | 1.02 ± 0.043
180 | GTCAAACGGA | 0.986 ± 0.018
181 | GGCCTGGGGG | 1 ± 0.019
182 | CTTATTCGCC | 1.05 ± 0.099
183 | GTGTTATTTA | 0.977 ± 0.046
184 | TAAATGTGGG | 1 ± 0.069
185 | ATCGGGGGGC | 1 ± 0.055
186 | TTTAACAGGG | 1.03 ± 0.069
187 | ATGAATGCGG | 0.99 ± 0.0094
188 | TAGTCTATTT | 0.977 ± 0.02
189 | GCATAGGTTA | 1 ± 0.015
190 | AGGTGATTCT | 1.04 ± 0.025
191 | GTGGGTTGGC | 1.03 ± 0.043
192 | TGAGCGTGAG | 1.01 ± 0.015
193 | GGCGGATATG | 1.009 ± 0.0097
194 | GGGTGAGTGG | 1.01 ± 0.021
195 | CCAAATGCGA | 1.97 ± 0.068
196 | GGACGTGGTA | 1.03 ± 0.028
197 | CTTGCCTGGG | 0.96 ± 0.028
198 | TTGGTTGCG | 1.02 ± 0.026
199 | CTACGGGGTG | 1.01 ± 0.046
200 | ACCGAGGGGT | 1.06 ± 0.077
